What was measured:
Assay in all cases: EC50 of free RNA motif oligo competing protein binding to immobilised probe
CPSF3 = target: T1, CPSF3 (UniProt Q9UKF6)
T1 sequence: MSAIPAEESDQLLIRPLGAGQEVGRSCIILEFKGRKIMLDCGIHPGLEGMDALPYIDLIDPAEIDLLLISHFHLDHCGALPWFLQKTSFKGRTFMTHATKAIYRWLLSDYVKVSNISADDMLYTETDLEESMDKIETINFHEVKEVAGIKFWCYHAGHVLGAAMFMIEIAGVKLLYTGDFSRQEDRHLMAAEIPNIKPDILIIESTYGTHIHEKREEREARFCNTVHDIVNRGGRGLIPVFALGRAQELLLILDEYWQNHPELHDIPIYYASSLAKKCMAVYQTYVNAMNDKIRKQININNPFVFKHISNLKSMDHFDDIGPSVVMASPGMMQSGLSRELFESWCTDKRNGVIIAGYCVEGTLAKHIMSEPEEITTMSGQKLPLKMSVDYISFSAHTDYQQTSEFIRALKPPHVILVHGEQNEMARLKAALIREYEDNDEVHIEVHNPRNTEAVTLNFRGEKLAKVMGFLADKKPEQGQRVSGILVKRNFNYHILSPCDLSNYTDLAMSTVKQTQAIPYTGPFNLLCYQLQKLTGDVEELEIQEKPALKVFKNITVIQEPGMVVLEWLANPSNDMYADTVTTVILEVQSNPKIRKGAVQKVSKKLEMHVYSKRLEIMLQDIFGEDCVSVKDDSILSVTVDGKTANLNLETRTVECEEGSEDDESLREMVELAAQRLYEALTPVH
How it was run: (§1)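 Kd was calculated as EC50, taken from a four-parameter log-logistic fit, multiplied by a protein-dependent depletion factor. The assay used HEK293-FT lysate (2.5 mg protein/well) pre-incubated for 1 h at 4°C with free RNA oligos (0 nM to 30 μM), then incubated for 30 min at 4°C with the matching oligos bound through a 5′-amino-C6 linker to NHS-Sepharose beads. Bound proteins were measured by label-free LC-MS/MS and normalised to the control.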

FIP1L1 = target: T2, FIP1L1 (UniProt Q6UN15)
T2 sequence: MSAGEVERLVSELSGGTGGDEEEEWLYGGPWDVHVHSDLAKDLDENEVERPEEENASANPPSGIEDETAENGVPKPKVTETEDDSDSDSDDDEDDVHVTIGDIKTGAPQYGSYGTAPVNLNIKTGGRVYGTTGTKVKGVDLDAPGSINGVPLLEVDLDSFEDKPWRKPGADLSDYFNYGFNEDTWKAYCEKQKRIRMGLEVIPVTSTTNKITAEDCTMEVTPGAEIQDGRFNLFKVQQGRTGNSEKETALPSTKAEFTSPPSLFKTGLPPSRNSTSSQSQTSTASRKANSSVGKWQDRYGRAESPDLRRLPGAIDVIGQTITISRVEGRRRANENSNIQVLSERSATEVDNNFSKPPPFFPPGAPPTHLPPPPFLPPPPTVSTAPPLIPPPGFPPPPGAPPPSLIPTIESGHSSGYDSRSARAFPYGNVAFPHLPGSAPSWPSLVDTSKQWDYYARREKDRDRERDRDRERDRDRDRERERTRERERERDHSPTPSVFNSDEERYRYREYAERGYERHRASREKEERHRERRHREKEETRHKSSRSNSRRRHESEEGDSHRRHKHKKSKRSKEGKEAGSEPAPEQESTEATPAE
How it was run: as §1

LSM2 = target: T3, LSM2 (UniProt Q9Y333)
T3 sequence: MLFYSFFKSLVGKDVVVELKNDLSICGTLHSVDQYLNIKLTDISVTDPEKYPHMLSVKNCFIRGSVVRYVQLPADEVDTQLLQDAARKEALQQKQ
How it was run: as §1

ZNF830 = target: T4, ZNF830 (UniProt Q96NB3)
T4 sequence: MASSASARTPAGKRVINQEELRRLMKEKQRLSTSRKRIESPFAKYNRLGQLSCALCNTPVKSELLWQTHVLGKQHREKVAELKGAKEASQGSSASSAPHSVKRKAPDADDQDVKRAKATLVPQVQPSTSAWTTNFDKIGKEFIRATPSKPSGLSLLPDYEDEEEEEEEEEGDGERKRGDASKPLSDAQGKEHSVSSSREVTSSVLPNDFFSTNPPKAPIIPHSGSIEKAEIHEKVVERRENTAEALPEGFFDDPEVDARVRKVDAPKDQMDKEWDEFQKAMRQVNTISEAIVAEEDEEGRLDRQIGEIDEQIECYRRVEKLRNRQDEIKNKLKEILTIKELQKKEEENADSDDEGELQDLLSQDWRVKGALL
How it was run: as §1

Row | Sequence | EC50 (CPSF3) [µM] | EC50 (FIP1L1) [µM] | EC50 (LSM2) [µM] | EC50 (ZNF830) [µM]
1 | UAUUUAU | 0.598 | 1.39 | 0.781 | 0.378
2 | AAUAAA | 0.0574 | 0.0648 | 0.314 | 1.03

— the supplement of paper PMC6379048
